Patent US20140212427A1 (University of Pennsylvania, published 2014)
Substitutions are numbered along the chain they refer to.

B1: mAb 19.1 (antibody, V domains shown)
VH: QVQLKQSGPGLVQPSQSLSISCTVSGFSLTTYGVHWVRQSPGKGLEWLGVIWSGGDTDYNASFISRLRINKDTSKSQVFFKMNSLQADDTAYYCARNKDYYTNYDFTMDYWGQGTSVTVSS
VL: NIMMTQSPSSLAVSAGEKVTMSCKSSQSVLYSSNQKNFLAWYQQKPGQSPKLLIYWASTRESGVPDRFTGSGSGTDFILTINSVQVEDQAVYYCHQYLSSYTFGGGTKLEIK
notes: Mouse hybridoma monoclonal antibody from properdin knockout mice immunised with human properdin; kappa light chain
B2: chimeric 19.1 mAb (antibody, human IgG4 S228P, kappa, V domains shown)
VH: B1 VH
VL: NIMMTQSPSSLAVSAGEKVTMSCKSSQSVLYSSNQKNFLAWYQQKPGQSPKLLIYWASTRESGVPDRFTGSGSGTDFILTINSVQVEDQAVYYCHQYLSSYTFGGGTKLEIKT
B3: mAb 22.1 (antibody, V domains shown)
VH: QVQLKQSGPGLVQPSQSLSITCTVSGFSLTSYGVHWVRQSPGKGLEWLGVIWSGGSTDYNAAFISRLSISKDTSKSQVFFKMNSLQPDDTAIYYCARNKDFYSNYDYTMDYWGQGTSVTVSS
VL: B1 VL with S10F, M21L, I78T, N82S, V86A, Q89L
B4: humanized 19.1 mAb with heavy chain variable region humanized 19.1 VH-4-59-01 (antibody, human IgG4 S228P, kappa, V domains shown)
VH: QVQLQESGPGLVKPSETLSLTCTVSGFSLTTYGVHWIRQPPGKGLEWIGVIWSGGDTDYNASFISRVTISVDTSKNQFSLKLSSVTAADTAVYYCARNKDYYTNYDFTMDYWGQGTTVTVSS
VL: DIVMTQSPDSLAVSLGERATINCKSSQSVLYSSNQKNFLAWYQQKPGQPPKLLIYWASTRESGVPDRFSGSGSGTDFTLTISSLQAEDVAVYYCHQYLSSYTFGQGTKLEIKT
B5: mAb 25 (antibody, V domains shown)
VH: QVQLLQSGAEVMKPGASVTLSCKAIGYTFIDYWIEWIKQRPGHGLEWIGEIFPGSGTINHNEKFKDKASFSAHSSSNTAYMQLSRLTSEDSAIYYCAREGLDYWGQGTTLTVSS
VL: QIVLTQSPAIMSASPGERVTMTCSASSSVSYIYWYQQKSGTSPKRWIFDTSTLASGVPTRFSGSGSGTSYSLTISSMETEDAATYYCQQWSRNPFTFGSGTKLEIK
notes: Mouse hybridoma monoclonal antibody; also called anti-properdin mAb 25
B6: humanized 19.1 mAb with heavy chain variable region humanized 19.1 VH-3-66-04 (antibody, human IgG4 S228P, kappa, V domains shown)
VH: EVQLVESGGGLVQPGGSLRLSCAASGFSLTTYGVHWVRQAPGKGLEWVSVIWSGGDTDYNASFISRFTISRDNSKNTLYLQMNSLRAEDTAVYYCARNKDYYTNYDFTMDYWGQGTTVTVSS
VL: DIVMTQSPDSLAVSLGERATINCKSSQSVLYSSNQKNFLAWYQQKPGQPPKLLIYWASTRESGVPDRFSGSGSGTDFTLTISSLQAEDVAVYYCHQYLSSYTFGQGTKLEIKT

Experiments:
[1] = target: human properdin (human, UniProt P27918 28-469); experiment: cell-based or functional assay
human properdin, sequence (P27918 28-469): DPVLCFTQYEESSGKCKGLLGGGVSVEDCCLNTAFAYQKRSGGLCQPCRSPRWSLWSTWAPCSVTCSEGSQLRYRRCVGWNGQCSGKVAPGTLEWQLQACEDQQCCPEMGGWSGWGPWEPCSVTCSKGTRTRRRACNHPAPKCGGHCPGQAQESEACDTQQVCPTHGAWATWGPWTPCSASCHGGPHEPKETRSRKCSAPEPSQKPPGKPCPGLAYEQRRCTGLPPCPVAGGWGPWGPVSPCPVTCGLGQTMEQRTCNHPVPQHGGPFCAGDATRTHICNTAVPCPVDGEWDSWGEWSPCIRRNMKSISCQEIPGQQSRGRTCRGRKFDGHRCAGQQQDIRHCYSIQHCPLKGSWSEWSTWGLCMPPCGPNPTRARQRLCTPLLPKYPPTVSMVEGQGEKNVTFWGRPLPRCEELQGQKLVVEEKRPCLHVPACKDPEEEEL

[2] = target: T1, human properdin mutant TSR0-4+½ TSR5 (human, UniProt P27918 28-345); experiment: sandwich ELISA with CHO cell lysates (FIG. 7)
T1 construct: Expressed in CHO cells, tested as lysate; expression confirmed by Western blot
T1 sequence (P27918 other isoform, or with tags, fused parts or gaps mutant limits assumed): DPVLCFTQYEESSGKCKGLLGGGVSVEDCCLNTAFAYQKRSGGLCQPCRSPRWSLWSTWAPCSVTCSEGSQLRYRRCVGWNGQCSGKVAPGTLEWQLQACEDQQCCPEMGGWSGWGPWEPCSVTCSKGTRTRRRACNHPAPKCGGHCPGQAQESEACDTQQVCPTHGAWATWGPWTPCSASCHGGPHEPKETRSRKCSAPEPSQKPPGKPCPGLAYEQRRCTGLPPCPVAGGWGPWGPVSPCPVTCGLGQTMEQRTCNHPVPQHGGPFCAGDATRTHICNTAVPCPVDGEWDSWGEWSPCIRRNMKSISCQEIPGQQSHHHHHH
Description: (§1) (see FIG. 6). ELISA plates were coated with 50 μl of 2 μg/ml of the concerned mAb overnight at 4° C. The plates were washed 3× with PBS-T and then 25 μg (in 50 μl PBS containing 1% BSA) CHO cell lysate proteins were added to the wells and the plates were incubated for 1 hour at room temperature. The plates were washed 3× with PBS-T and then captured protein was detected by biotinylated goat anti-human properdin antibody and HRP-avidin system.
(§2) Three human properdin mutants comprising TSR0-4+¼ TSR5, TSR0-4+½ TSR5 or TSR0-4+¾ TSR5 were generated by conventional PCR. They were cloned into pCAGGS and expressed in CHO cells as described in Example 5. Protein expression was confirmed by Western analysis using goat anti-human properdin antibody. The blot was stripped and reprobed with a mouse anti-His tag antibody (Qiagen) to confirm that the C-terminal His Tag is present (no C-terminal proteolysis).

[3] = target: T2, human properdin deletion mutant dTSR5+6 (human, UniProt P27918 28-313); experiment: ELISA with CHO cell lysates of properdin deletion mutants (FIG. 6)
T2 construct: Human properdin with TSR5 and TSR6 deleted; CHO cell lysate; also called TSR0-4; TSR5+6 deletion mutant
T2 sequence (P27918 other isoform, or with tags, fused parts or gaps mutant limits assumed): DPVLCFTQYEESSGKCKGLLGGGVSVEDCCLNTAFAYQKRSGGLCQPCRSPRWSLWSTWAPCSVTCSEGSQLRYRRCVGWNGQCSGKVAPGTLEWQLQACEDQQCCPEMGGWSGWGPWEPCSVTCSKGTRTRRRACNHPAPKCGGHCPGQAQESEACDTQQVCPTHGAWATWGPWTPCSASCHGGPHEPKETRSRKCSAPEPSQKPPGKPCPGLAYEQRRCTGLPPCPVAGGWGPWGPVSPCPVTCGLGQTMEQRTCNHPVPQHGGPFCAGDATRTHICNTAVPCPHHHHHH
Description: (§3) However, because dTSR5 has undergone proteolytic degradation leading to possible TSR6 removal (FIG. 5), it is likely that the epitope for mAb 25 is located in TSR6. HuP refers to full length human properdin transfection which is used as a positive control. Con refers to untransfected CHO cell lysate which is used as a negative control for lack of binding. All mutant proteins contained a 6×His tag at the C-terminus.
as §1

[4] = target: T3, human properdin mutant TSR0-5+¾ TSR6 (human, UniProt P27918 28-446); experiment: sandwich ELISA with CHO cell lysates (FIG. 8A)
T3 construct: Expressed in CHO cells, tested as lysate; expression confirmed by Western blot
T3 sequence (P27918 other isoform, or with tags, fused parts or gaps mutant limits assumed): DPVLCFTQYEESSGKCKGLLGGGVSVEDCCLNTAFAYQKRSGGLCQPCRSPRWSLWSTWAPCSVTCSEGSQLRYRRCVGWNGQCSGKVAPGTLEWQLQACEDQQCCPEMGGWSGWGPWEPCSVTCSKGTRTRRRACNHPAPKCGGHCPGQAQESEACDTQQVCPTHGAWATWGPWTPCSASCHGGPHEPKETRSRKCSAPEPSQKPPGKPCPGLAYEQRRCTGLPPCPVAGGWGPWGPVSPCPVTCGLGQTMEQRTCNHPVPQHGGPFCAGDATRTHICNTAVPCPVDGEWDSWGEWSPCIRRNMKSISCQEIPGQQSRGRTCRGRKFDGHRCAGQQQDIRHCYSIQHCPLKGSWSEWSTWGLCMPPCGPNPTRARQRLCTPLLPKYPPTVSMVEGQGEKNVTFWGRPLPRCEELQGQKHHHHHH
Description: as §1
as §2, with “TSR0-5+¼ TSR6, TSR0-5+½ TSR6” for “TSR0-4+¼ TSR5, TSR0-4+½ TSR5”, “TSR0-5+¾ TSR6” for “TSR0-4+¾ TSR5”, “proteolysis). […] These are cysteine 62 (C62) and cysteine 78 (C78) of TSR6.” for “proteolysis).”

[5] = target: T4, full-length human properdin with the double mutations C62A and C78A (TSR6) (human, UniProt P27918 28-469); experiment: ELISA with homogenates of transfected CHO cells (FIG. 8B)
T4 construct: Whether this mutant carries a 6×His tag is not clear; Homogenate of transfected CHO cells; also called C62A and C78A double mutant
T4 sequence (P27918 28-469 C439A/C455A limits assumed): as the sequence (P27918 28-469) above, with C412A, C428A counted along it

[6] = target: T5, human properdin deletion mutant dTSR6 (human, UniProt P27918 28-377); experiment: ELISA with CHO cell lysates of properdin deletion mutants (FIG. 6)
T5 construct: CHO cell lysate; also called TSR0-5
T5 sequence (P27918 other isoform, or with tags, fused parts or gaps mutant limits assumed): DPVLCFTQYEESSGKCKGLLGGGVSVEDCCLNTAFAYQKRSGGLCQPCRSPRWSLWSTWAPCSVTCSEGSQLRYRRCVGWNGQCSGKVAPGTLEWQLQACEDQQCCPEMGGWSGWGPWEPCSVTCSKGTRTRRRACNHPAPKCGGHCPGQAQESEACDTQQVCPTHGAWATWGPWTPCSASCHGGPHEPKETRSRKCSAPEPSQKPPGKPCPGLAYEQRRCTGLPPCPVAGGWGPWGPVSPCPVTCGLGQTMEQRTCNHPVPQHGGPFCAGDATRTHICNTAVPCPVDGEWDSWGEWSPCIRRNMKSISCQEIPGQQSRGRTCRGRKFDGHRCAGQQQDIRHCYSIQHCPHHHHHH
Description: as §3, §1

| Binder | LPS-induced AP complement activation in 50% normal human serum (C3 deposition, OD450) [1] | acidified autologous serum lysis of PNH patient RBCs (Ham's test) [1] | concentration sufficient to inhibit LPS-induced human AP complement activation in 50% NHS (C3 deposition) [1] | lysis of human RBCs by 50% human serum with fH 19-20 and anti-DAF mAb [1] | binding result [2] | binding result [3] | binding result [4] | binding result [5] | binding result [6] |
| --- | --- | --- | --- | --- | --- | --- | --- | --- | --- |
| B1 | 5 µg/mL | ≥ 8 µg/ml | 5 µg/mL | 5 µg/mL | no binding | no binding |  |  |  |
| B2 |  |  | 10 µg/mL |  |  |  |  |  |  |
| B3 | 5 µg/mL |  |  | 5 µg/mL |  |  |  |  |  |
| B4 |  | 20 µg/ml | 10 µg/mL |  |  |  |  |  |  |
| B5 | 5 µg/mL | ≥ 8 µg/ml |  | 5 µg/mL |  | no binding | no binding | no binding | no binding |
| B6 |  |  | 10 µg/mL |  |  |  |  |  |  |
